Source: patent US10344077 (DUKE UNIVERSITY, dated 2019)

Assays:
SSB [1] = biological target: T1, SSB (UniProt P05455 1-408); assay: AtheNA
T1 sequence (looked up): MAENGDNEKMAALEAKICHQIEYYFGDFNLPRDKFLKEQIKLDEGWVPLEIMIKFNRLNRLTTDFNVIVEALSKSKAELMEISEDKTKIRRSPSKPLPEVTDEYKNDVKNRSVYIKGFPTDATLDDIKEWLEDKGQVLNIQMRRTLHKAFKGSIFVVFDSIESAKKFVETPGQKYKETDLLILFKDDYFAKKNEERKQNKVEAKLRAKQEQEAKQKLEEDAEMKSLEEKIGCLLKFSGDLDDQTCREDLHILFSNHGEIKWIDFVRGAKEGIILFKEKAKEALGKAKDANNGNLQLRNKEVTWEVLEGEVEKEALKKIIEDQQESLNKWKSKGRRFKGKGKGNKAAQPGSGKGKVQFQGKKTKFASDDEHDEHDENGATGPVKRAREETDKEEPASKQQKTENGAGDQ
Description: (§1) AtheNA Multi-Lyte ANA Plus Test System is one such assay. This is luminex-based assay, which is also used to screen patient sera.

Scl-70 [2] = biological target: T2, Scl-70 (UniProt P11387 2-765); assay: AtheNA
T2 sequence (looked up): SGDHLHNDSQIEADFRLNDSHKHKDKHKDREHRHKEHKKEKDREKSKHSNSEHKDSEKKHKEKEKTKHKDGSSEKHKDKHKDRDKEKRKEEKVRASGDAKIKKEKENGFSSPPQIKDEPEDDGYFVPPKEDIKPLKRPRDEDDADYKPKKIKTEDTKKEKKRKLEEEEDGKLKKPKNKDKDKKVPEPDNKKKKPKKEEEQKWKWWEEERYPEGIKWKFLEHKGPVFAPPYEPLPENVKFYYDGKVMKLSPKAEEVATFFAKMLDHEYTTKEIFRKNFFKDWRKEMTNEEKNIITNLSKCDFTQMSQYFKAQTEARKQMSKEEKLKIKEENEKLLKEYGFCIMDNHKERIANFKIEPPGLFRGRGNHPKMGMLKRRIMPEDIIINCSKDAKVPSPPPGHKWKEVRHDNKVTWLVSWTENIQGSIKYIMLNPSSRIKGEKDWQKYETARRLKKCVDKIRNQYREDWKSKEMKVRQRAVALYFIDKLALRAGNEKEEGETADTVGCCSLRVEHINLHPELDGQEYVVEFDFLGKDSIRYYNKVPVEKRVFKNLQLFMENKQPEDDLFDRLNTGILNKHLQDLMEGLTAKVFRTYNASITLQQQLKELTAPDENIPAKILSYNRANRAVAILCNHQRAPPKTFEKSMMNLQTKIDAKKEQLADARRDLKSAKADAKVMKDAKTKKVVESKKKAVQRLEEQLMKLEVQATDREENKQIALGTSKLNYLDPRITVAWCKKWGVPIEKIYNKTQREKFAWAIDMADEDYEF
Description: as §1

Jo-1 [3] = biological target: T3, Jo-1 (UniProt P12081 2-509); assay: AtheNA
T3 sequence (looked up): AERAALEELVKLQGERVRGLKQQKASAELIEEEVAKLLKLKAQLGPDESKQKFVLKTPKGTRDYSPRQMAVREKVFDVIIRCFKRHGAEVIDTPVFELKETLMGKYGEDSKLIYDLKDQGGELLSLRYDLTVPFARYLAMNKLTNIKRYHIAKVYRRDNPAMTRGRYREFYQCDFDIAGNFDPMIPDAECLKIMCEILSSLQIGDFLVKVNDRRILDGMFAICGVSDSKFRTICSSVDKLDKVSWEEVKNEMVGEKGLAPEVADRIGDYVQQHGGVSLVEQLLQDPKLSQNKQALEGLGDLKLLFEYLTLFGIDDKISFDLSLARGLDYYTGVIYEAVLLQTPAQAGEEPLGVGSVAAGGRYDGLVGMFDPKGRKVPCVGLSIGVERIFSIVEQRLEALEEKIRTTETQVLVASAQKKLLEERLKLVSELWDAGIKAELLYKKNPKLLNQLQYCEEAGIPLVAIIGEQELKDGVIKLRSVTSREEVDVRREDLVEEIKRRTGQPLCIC
Description: as §1

STUB-1 = biological target: T4, STUB-1 (human, UniProt Q9UNE7 1-303); assay: array of human antigens
T4 sequence (looked up): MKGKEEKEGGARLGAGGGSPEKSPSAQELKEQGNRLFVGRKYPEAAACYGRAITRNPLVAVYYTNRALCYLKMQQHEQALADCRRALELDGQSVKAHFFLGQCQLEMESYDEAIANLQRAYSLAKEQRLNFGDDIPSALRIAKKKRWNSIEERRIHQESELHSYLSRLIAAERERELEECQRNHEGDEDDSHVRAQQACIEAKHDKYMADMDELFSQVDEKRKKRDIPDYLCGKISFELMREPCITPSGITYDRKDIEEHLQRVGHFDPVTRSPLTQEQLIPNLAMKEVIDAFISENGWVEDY

SSA [4] = assay: AtheNA, Ab 25 ug/ml
Description: as §1

SSB [5] = biological target: T1, SSB; assay: AtheNA, Ab 25 ug/ml
Description: as §1

Sm (Smith antigen) [6] = assay: AtheNA, Ab 25 ug/ml
Description: as §1

RNP (ribonucleoprotein) [7] = assay: AtheNA, Ab 25 ug/ml
Description: as §1

Scl-70 [8] = biological target: T2, Scl-70; assay: AtheNA, Ab 25 ug/ml
Description: as §1

Jo-1 [9] = biological target: T3, Jo-1; assay: AtheNA, Ab 25 ug/ml
Description: as §1

Centromere B [10] = biological target: T5, Centromere B (UniProt P07199 2-599); assay: AtheNA, Ab 25 ug/ml
T5 construct: also called Cent B
T5 sequence (looked up): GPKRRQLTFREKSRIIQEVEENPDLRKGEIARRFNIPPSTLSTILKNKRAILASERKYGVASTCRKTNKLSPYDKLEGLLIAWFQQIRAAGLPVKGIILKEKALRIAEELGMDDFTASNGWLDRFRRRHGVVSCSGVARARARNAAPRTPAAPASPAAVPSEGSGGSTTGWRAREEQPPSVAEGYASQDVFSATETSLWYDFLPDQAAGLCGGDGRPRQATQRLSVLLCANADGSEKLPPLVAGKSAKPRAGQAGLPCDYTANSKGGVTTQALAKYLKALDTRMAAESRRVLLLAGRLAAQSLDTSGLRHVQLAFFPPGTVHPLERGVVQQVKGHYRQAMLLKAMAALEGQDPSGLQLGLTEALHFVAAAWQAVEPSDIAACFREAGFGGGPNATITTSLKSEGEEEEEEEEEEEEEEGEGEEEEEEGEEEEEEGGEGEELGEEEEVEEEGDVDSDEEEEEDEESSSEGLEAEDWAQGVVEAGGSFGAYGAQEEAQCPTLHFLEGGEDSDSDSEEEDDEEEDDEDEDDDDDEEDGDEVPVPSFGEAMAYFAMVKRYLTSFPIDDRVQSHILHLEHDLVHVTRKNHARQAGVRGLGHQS
Description: as §1

Histones [11] = assay: AtheNA, Ab 25 ug/ml
Description: as §1

SSA [12] = assay: AtheNA, Ab 50 ug/ml
Description: as §1

SSB [13] = biological target: T1, SSB; assay: AtheNA, Ab 50 ug/ml
Description: as §1

Sm (Smith antigen) [14] = assay: AtheNA, Ab 50 ug/ml
Description: as §1

RNP (ribonucleoprotein) [15] = assay: AtheNA, Ab 50 ug/ml
Description: as §1

Scl-70 [16] = biological target: T2, Scl-70; assay: AtheNA, Ab 50 ug/ml
Description: as §1

Jo-1 [17] = biological target: T3, Jo-1; assay: AtheNA, Ab 50 ug/ml
Description: as §1

Centromere B [18] = biological target: T5, Centromere B; assay: AtheNA, Ab 50 ug/ml
Description: as §1

Histones [19] = assay: AtheNA, Ab 50 ug/ml
Description: as §1

SSA [20] = assay: AtheNA, Ab 12.5 ug/ml
Description: as §1

SSB [21] = biological target: T1, SSB; assay: AtheNA, Ab 12.5 ug/ml
Description: as §1

Sm (Smith antigen) [22] = assay: AtheNA, Ab 12.5 ug/ml
Description: as §1

RNP (ribonucleoprotein) [23] = assay: AtheNA, Ab 12.5 ug/ml
Description: as §1

Scl-70 [24] = biological target: T2, Scl-70; assay: AtheNA, Ab 12.5 ug/ml
Description: as §1

Jo-1 [25] = biological target: T3, Jo-1; assay: AtheNA, Ab 12.5 ug/ml
Description: as §1

Centromere B [26] = biological target: T5, Centromere B; assay: AtheNA, Ab 12.5 ug/ml
Description: as §1

Histones [27] = assay: AtheNA, Ab 12.5 ug/ml
Description: as §1

SSA [28] = assay: AtheNA, Ab 6.25 ug/ml
Description: as §1

SSB [29] = biological target: T1, SSB; assay: AtheNA, Ab 6.25 ug/ml
Description: as §1

Sm (Smith antigen) [30] = assay: AtheNA, Ab 6.25 ug/ml
Description: as §1

RNP (ribonucleoprotein) [31] = assay: AtheNA, Ab 6.25 ug/ml
Description: as §1

Scl-70 [32] = biological target: T2, Scl-70; assay: AtheNA, Ab 6.25 ug/ml
Description: as §1

Jo-1 [33] = biological target: T3, Jo-1; assay: AtheNA, Ab 6.25 ug/ml
Description: as §1

Centromere B [34] = biological target: T5, Centromere B; assay: AtheNA, Ab 6.25 ug/ml
Description: as §1

Histones [35] = assay: AtheNA, Ab 6.25 ug/ml
Description: as §1

B1: CH557 (antibody, V domains shown)
VH: QVRLAQYGGGVKRLGATMTLSCVASGYTFNDYYIHWVRQAPGQGFELLGYIDPANGRPDYAGALRERLSFYRDKSMETLYMDLRSLRYDDTAMYYCVRNVGTAGSLLHYDHWGSGSPVIVSS
VL: EIVLTQSPATLSASPGERVTLTCRASRSVRNNVAWYQHKGGQSPRLLIYDASTRAAGVPARFSGSASGTEFTLAISNLESEDFTVYFCLQYNNWWTFGQGTRVDIK
notes: also called CH557_4A/293i
- binding result (SSB [1]): no binding (tested: 6.25 ug/ml to 50 ug/ml)
- binding result (Scl-70 [2]): no binding (tested: 6.25 ug/ml to 50 ug/ml)
- binding result (Jo-1 [3]): no binding (tested: 6.25 ug/ml to 50 ug/ml)
- binding result (STUB-1): no binding
- Athena reading (SSA [4]): 4 relative luminescence units
- Athena reading (SSB [5]): 12 relative luminescence units
- Athena reading (Sm (Smith antigen) [6]): 6 relative luminescence units
- Athena reading (RNP (ribonucleoprotein) [7]): 6 relative luminescence units
- Athena reading (Scl-70 [8]): 4 relative luminescence units
- Athena reading (Jo-1 [9]): 2 relative luminescence units
- Athena reading (Centromere B [10]): 25 relative luminescence units
- Athena reading (Histones [11]): 8 relative luminescence units
- Athena reading (SSA [12]): 6 relative luminescence units
- Athena reading (SSB [13]): 15 relative luminescence units
- Athena reading (Sm (Smith antigen) [14]): 8 relative luminescence units
- Athena reading (RNP (ribonucleoprotein) [15]): 10 relative luminescence units
- Athena reading (Scl-70 [16]): 6 relative luminescence units
- Athena reading (Jo-1 [17]): 10 relative luminescence units
- Athena reading (Centromere B [18]): 46 relative luminescence units
- Athena reading (Histones [19]): 16 relative luminescence units
- Athena reading (SSA [20]): 3 relative luminescence units
- Athena reading (SSB [21]): 9 relative luminescence units
- Athena reading (Sm (Smith antigen) [22]): 6 relative luminescence units
- Athena reading (RNP (ribonucleoprotein) [23]): 3 relative luminescence units
- Athena reading (Scl-70 [24]): 3 relative luminescence units
- Athena reading (Jo-1 [25]): 5 relative luminescence units
- Athena reading (Centromere B [26]): 16 relative luminescence units
- Athena reading (Histones [27]): 6 relative luminescence units
- Athena reading (SSA [28]): 4 relative luminescence units
- Athena reading (SSB [29]): 5 relative luminescence units
- Athena reading (Sm (Smith antigen) [30]): 4 relative luminescence units
- Athena reading (RNP (ribonucleoprotein) [31]): 4 relative luminescence units
- Athena reading (Scl-70 [32]): 3 relative luminescence units
- Athena reading (Jo-1 [33]): 5 relative luminescence units
- Athena reading (Centromere B [34]): 11 relative luminescence units
- Athena reading (Histones [35]): 4 relative luminescence units
